Measurements as given in patent US9029508 (dated 2015).

Biological target: DLL4 (human, UniProt Q9NR61)
Test: ELISA

Chain of DLL4 (Q9NR61 27-524): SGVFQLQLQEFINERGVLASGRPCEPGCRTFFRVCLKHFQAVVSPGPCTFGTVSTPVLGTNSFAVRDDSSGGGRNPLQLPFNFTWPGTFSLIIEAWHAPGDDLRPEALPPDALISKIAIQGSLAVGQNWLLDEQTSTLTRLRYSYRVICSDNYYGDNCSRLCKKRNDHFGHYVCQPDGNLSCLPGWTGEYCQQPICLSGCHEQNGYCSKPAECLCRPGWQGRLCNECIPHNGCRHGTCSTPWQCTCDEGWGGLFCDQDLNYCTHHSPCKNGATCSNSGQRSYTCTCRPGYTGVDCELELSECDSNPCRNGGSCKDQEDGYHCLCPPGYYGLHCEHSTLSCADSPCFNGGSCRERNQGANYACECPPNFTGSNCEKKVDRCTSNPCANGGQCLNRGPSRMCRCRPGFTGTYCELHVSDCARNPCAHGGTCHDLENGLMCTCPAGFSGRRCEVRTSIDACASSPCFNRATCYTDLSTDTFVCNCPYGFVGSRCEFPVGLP

Binder	EC50 [nM]
DVD478 DLL4 arm (antibody, DVD-Ig inner) chain 1: EVQLVESGGGLVQPGGSLRLSCAASGFTFTDNWISWVRQAPGKGLEWVGYISPNSGFTYYADSVKGRFTISADTSKNTAYLQMNSLRAEDTAVYYCARDNFGGYFDYWGQGTLVTVSS chain 2: DIQMTQSPSSLSASVGDRVTITCRASQDVSTAVAWYQQKPGKAPKLLIYSASFLYSGVPSRFSGSGSGTDFTLTISSLQPEDFATTYYCQQSYTGTVTFGQGTKVEIKR	2.53
DVD473 DLL4 arm (antibody, DVD-Ig outer) chain 1: EVQLVESGGGLVQPGGSLRLSCAASGFTFTDNWISWVRQAPGKGLEWVGYISPNSGFTYYADSVKGRFTISADTSKNTAYLQMNSLRAEDTAVYYCARDNFGGYFDYWGQGTLVTVSS chain 2: DIQMTQSPSSLSASVGDRVTITCRASQDVSTAVAWYQQKPGKAPKLLIYSASFLYSGVPSRFSGSGSGTDFTLTISSLQPEDFATTYYCQQSYTGTVTFGQGTKVEIKR	1.8
DVD475 DLL4 arm (antibody, DVD-Ig outer) chain 1: EVQLVESGGGLVQPGGSLRLSCAASGFTFTDNWISWVRQAPGKGLEWVGYISPNSGFTYYADSVKGRFTISADTSKNTAYLQMNSLRAEDTAVYYCARDNFGGYFDYWGQGTLVTVSS chain 2: DIQMTQSPSSLSASVGDRVTITCRASQDVSTAVAWYQQKPGKAPKLLIYSASFLYSGVPSRFSGSGSGTDFTLTISSLQPEDFATTYYCQQSYTGTVTFGQGTKVEIKR	0.23
DVD447 DLL4 arm (antibody, V domains shown, DVD-Ig outer) VH: QVQLVQSGAEVKKPGASVKISCKASGYSFTAYYIHWVKQAPGQGLEWIGYISSYNGATNYNQKFKGRVTFTTDTSTSTAYMELRSLRSDDTAVYYCARDYDYDVGMDYWGQGTLVTVSS VL: DIVMTQSPDSLAVSLGERATISCRASESVDNYGISFMKWFQQKPGQPPKLLIYAASNQGSGVPDRFSGSGSGTDFTLTISSLQAEDVAVYYCQQSKEVPWTFGGGTKVEIKR	0.12
DVD457 DLL4 arm (antibody, V domains shown, DVD-Ig outer) VH: QVQLVQSGAEVKKPGASVKISCKASGYSFTAYYIHWVKQAPGQGLEWIGYISSYNGATNYNQKFKGRVTFTTDTSTSTAYMELRSLRSDDTAVYYCARDYDYDVGMDYWGQGTLVTVSS VL: DIVMTQSPDSLAVSLGERATISCRASESVDNYGISFMKWFQQKPGQPPKLLIYAASNQGSGVPDRFSGSGSGTDFTLTISSLQAEDVAVYYCQQSKEVPWTFGGGTKVEIKR	0.13
DVD444 DLL4 arm (antibody, V domains shown, DVD-Ig inner) VH: QVQLVQSGAEVKKPGASVKISCKASGYSFTAYYIHWVKQAPGQGLEWIGYISSYNGATNYNQKFKGRVTFTTDTSTSTAYMELRSLRSDDTAVYYCARDYDYDVGMDYWGQGTLVTVSS VL: DIVMTQSPDSLAVSLGERATISCRASESVDNYGISFMKWFQQKPGQPPKLLIYAASNQGSGVPDRFSGSGSGTDFTLTISSLQAEDVAVYYCQQSKEVPWTFGGGTKVEIKR	30.5
DVD453 DLL4 arm (antibody, V domains shown, DVD-Ig outer) VH: QVQLVQSGAEVKKPGASVKISCKASGYSFTAYYIHWVKQAPGQGLEWIGYISSYNGATNYNQKFKGRVTFTTDTSTSTAYMELRSLRSDDTAVYYCARDYDYDVGMDYWGQGTLVTVSS VL: DIVMTQSPDSLAVSLGERATISCRASESVDNYGISFMKWFQQKPGQPPKLLIYAASNQGSGVPDRFSGSGSGTDFTLTISSLQAEDVAVYYCQQSKEVPWTFGGGTKVEIKR	0.09
DVD455 DLL4 arm (antibody, V domains shown, DVD-Ig outer) VH: QVQLVQSGAEVKKPGASVKISCKASGYSFTAYYIHWVKQAPGQGLEWIGYISSYNGATNYNQKFKGRVTFTTDTSTSTAYMELRSLRSDDTAVYYCARDYDYDVGMDYWGQGTLVTVSS VL: DIVMTQSPDSLAVSLGERATISCRASESVDNYGISFMKWFQQKPGQPPKLLIYAASNQGSGVPDRFSGSGSGTDFTLTISSLQAEDVAVYYCQQSKEVPWTFGGGTKVEIKR	0.24
DVD446 DLL4 arm (antibody, V domains shown, DVD-Ig inner) VH: QVQLVQSGAEVKKPGASVKISCKASGYSFTAYYIHWVKQAPGQGLEWIGYISSYNGATNYNQKFKGRVTFTTDTSTSTAYMELRSLRSDDTAVYYCARDYDYDVGMDYWGQGTLVTVSS VL: DIVMTQSPDSLAVSLGERATISCRASESVDNYGISFMKWFQQKPGQPPKLLIYAASNQGSGVPDRFSGSGSGTDFTLTISSLQAEDVAVYYCQQSKEVPWTFGGGTKVEIKR	13.9
DVD451 DLL4 arm (antibody, V domains shown, DVD-Ig outer) VH: QVQLVQSGAEVKKPGASVKISCKASGYSFTAYYIHWVKQAPGQGLEWIGYISSYNGATNYNQKFKGRVTFTTDTSTSTAYMELRSLRSDDTAVYYCARDYDYDVGMDYWGQGTLVTVSS VL: DIVMTQSPDSLAVSLGERATISCRASESVDNYGISFMKWFQQKPGQPPKLLIYAASNQGSGVPDRFSGSGSGTDFTLTISSLQAEDVAVYYCQQSKEVPWTFGGGTKVEIKR	0.4

Other lines, results leading:

EC50 [nM]	Binder
0.81	DVD528 DLL4 arm (antibody, V domains shown, DVD-Ig inner) VH: EVQLQQSGPELEKPGASVKISCKASGYSFTGYNMNWVKQSNGKSLEWIGNIDPYFGGTNYNQKFKGKATLTVDKSSSTAYMQLKSLTSEDSAVYYCARNYDYDGGCFDYWGQGTTLTVSS VL: QAVVTQESALTTSPGETVTLTCRSSTGAVTTSNYANWVQEKPDHLFTGLIGGTNNRAPGVPARFSGSLIGDKAALTITGAQTEDEAIYFCALWYSNHWVFGGGTKLTVLG
17.3	DVD520 DLL4 arm (antibody, V domains shown, DVD-Ig inner) VH: EVQLQQSGPELEKPGASVKISCKASGYSFTGYNMNWVKQSNGKSLEWIGNIDPYFGGTNYNQKFKGKATLTVDKSSSTAYMQLKSLTSEDSAVYYCARNYDYDGGCFDYWGQGTTLTVSS VL: QAVVTQESALTTSPGETVTLTCRSSTGAVTTSNYANWVQEKPDHLFTGLIGGTNNRAPGVPARFSGSLIGDKAALTITGAQTEDEAIYFCALWYSNHWVFGGGTKLTVLG
0.57	DVD531 DLL4 arm (antibody, V domains shown, DVD-Ig outer) VH: EVQLQQSGPELEKPGASVKISCKASGYSFTGYNMNWVKQSNGKSLEWIGNIDPYFGGTNYNQKFKGKATLTVDKSSSTAYMQLKSLTSEDSAVYYCARNYDYDGGCFDYWGQGTTLTVSS VL: QAVVTQESALTTSPGETVTLTCRSSTGAVTTSNYANWVQEKPDHLFTGLIGGTNNRAPGVPARFSGSLIGDKAALTITGAQTEDEAIYFCALWYSNHWVFGGGTKLTVLG
0.47	DVD534 DLL4 arm (antibody, V domains shown, DVD-Ig inner) VH: EVQLQQSGPELEKPGASVKISCKASGYSFTGYNMNWVKQSNGKSLEWIGNIDPYFGGTNYNQKFKGKATLTVDKSSSTAYMQLKSLTSEDSAVYYCARNYDYDGGCFDYWGQGTTLTVSS VL: QAVVTQESALTTSPGETVTLTCRSSTGAVTTSNYANWVQEKPDHLFTGLIGGTNNRAPGVPARFSGSLIGDKAALTITGAQTEDEAIYFCALWYSNHWVFGGGTKLTVLG
21.1	DVD514 DLL4 arm (antibody, V domains shown, DVD-Ig inner) VH: EVQLQQSGPELEKPGASVKISCKASGYSFTGYNMNWVKQSNGKSLEWIGNIDPYFGGTNYNQKFKGKATLTVDKSSSTAYMQLKSLTSEDSAVYYCARNYDYDGGCFDYWGQGTTLTVSS VL: QAVVTQESALTTSPGETVTLTCRSSTGAVTTSNYANWVQEKPDHLFTGLIGGTNNRAPGVPARFSGSLIGDKAALTITGAQTEDEAIYFCALWYSNHWVFGGGTKLTVLG
0.22	DVD524 DLL4 arm (antibody, V domains shown, DVD-Ig inner) VH: EVQLQQSGPELEKPGASVKISCKASGYSFTGYNMNWVKQSNGKSLEWIGNIDPYFGGTNYNQKFKGKATLTVDKSSSTAYMQLKSLTSEDSAVYYCARNYDYDGGCFDYWGQGTTLTVSS VL: QAVVTQESALTTSPGETVTLTCRSSTGAVTTSNYANWVQEKPDHLFTGLIGGTNNRAPGVPARFSGSLIGDKAALTITGAQTEDEAIYFCALWYSNHWVFGGGTKLTVLG
5.9	DVD518 DLL4 arm (antibody, V domains shown, DVD-Ig inner) VH: EVQLQQSGPELEKPGASVKISCKASGYSFTGYNMNWVKQSNGKSLEWIGNIDPYFGGTNYNQKFKGKATLTVDKSSSTAYMQLKSLTSEDSAVYYCARNYDYDGGCFDYWGQGTTLTVSS VL: QAVVTQESALTTSPGETVTLTCRSSTGAVTTSNYANWVQEKPDHLFTGLIGGTNNRAPGVPARFSGSLIGDKAALTITGAQTEDEAIYFCALWYSNHWVFGGGTKLTVLG
39.5	DVD494 DLL4 arm (antibody, V domains shown, DVD-Ig inner) VH: EVQLQQSGPELVKPGASVKMSCKASGYTFTSYVINWVKQKPGQGLEWIGLINPYNDGTKYNEKFKVKATLTSDKSSSTAYMELSSLTSEDSAVYYCASYYYGSRYYFDYWGQGTTLTVSS VL: DIQMTQSSSYLSVSLGGRVTITCKASDHINNWLAWYQQKPGNAPRLLISGATSLETGVPSRFSGSGSGKDYTLSITSLQTEDVATYYCQQYWSIPLTFGAGTKLELKR
0.33	DVD495 DLL4 arm (antibody, V domains shown, DVD-Ig outer) VH: EVQLQQSGPELVKPGASVKMSCKASGYTFTSYVINWVKQKPGQGLEWIGLINPYNDGTKYNEKFKVKATLTSDKSSSTAYMELSSLTSEDSAVYYCASYYYGSRYYFDYWGQGTTLTVSS VL: DIQMTQSSSYLSVSLGGRVTITCKASDHINNWLAWYQQKPGNAPRLLISGATSLETGVPSRFSGSGSGKDYTLSITSLQTEDVATYYCQQYWSIPLTFGAGTKLELKR
0.09	DVD499 DLL4 arm (antibody, V domains shown, DVD-Ig outer) VH: EVQLQQSGPELVKPGASVKMSCKASGYTFTSYVINWVKQKPGQGLEWIGLINPYNDGTKYNEKFKVKATLTSDKSSSTAYMELSSLTSEDSAVYYCASYYYGSRYYFDYWGQGTTLTVSS VL: DIQMTQSSSYLSVSLGGRVTITCKASDHINNWLAWYQQKPGNAPRLLISGATSLETGVPSRFSGSGSGKDYTLSITSLQTEDVATYYCQQYWSIPLTFGAGTKLELKR
0.61	DVD508 DLL4 arm (antibody, V domains shown, DVD-Ig inner) VH: EVQLQQSGPELVKPGASVKMSCKASGYTFTSYVINWVKQKPGQGLEWIGLINPYNDGTKYNEKFKVKATLTSDKSSSTAYMELSSLTSEDSAVYYCASYYYGSRYYFDYWGQGTTLTVSS VL: DIQMTQSSSYLSVSLGGRVTITCKASDHINNWLAWYQQKPGNAPRLLISGATSLETGVPSRFSGSGSGKDYTLSITSLQTEDVATYYCQQYWSIPLTFGAGTKLELKR
9.27	DVD490 DLL4 arm (antibody, V domains shown, DVD-Ig inner) VH: EVQLQQSGPELVKPGASVKMSCKASGYTFTSYVINWVKQKPGQGLEWIGLINPYNDGTKYNEKFKVKATLTSDKSSSTAYMELSSLTSEDSAVYYCASYYYGSRYYFDYWGQGTTLTVSS VL: DIQMTQSSSYLSVSLGGRVTITCKASDHINNWLAWYQQKPGNAPRLLISGATSLETGVPSRFSGSGSGKDYTLSITSLQTEDVATYYCQQYWSIPLTFGAGTKLELKR
